Source: the supplement of paper PMC12764529
± gives the half width of the 95% confidence interval.

Tests used:
[1] = folding stability dG unfold from trypsin proteolysis; higher = more stable
In short: (§1)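 Only designs with AlphaFold2 dimer inter-PAE above 15 were retained; each was a mini-protein under 80 residues with no cysteine, in a PA-tagged cDNA display construct. After digestion with trypsin and chymotrypsin and sequencing, K50 was inferred by Bayesian fitting of counts, and unfolding free energy was derived per protease or combined against a sequence-predicted unfolded-state K50 and a shared folded-state K50.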

[2] = folding stability dG unfold from chymotrypsin proteolysis; higher = more stable
In short: as §1

[3] = folding stability dG unfold (combined trypsin and chymotrypsin); higher = more stable
In short: as §1

Row | Sequence | folding stability dG unfold [1] [kcal/mol] | folding stability dG unfold [2] [kcal/mol] | folding stability dG unfold [3] [kcal/mol]
1 | SAIVLVVADDSPEEAVERARRFAATLRERLVREGYPDADVPIVVEVRAVPPPVPVPVRLPDGDEVVPAPSAG [r14_475_TrMRF] | 0.647 ± 0.1 | 1.7 ± 0.044 | 1.32 ± 0.064
2 | SAGGSAGGSEDKYIIRVEVLLPNKKRTYVLEEPEKGIEAFKKRLEKEYPDEPIVEVRIEVLPASAGGSAGGS [r12_429_TrMRF] | 0.874 ± 0.032 | 1.37 ± 0.11 | 1.19 ± 0.1
3 | SAGGSAGGSAGGGLRKITFETPLSDFEELVKALGLNVVSAEVEPGAGGLAKVTLLVEEGSAGGSAGGSAGGS [r10_999_TrMRF] | 1.04 ± 0.013 | 1.843 ± 0.016 | 1.55 ± 0.041
4 | SAKPPKVEVKTVRVTIKVRNKDGSTYTITKEVTEVRVEVDGKTVTVTSIKITIELPPGITEVEIKIEKVSAG [r14_892_TrROS_Hall] | 3.61 ± 0.49 | 4.84 ± 0.29 | 4.47 ± 0.47
5 | SAGGPPIKKAEIKEIYPEKGIINAIIELEDIPKPYEAIGIITDEKEGIIFVEIINPEGGPPLYFTIKASAGG [r13_337_TrMRF] | 0.928 ± 0.033 | 1.09 ± 0.1 | 0.972 ± 0.22
6 | SAGGSAGGSAIVILLPWGFLIEIKNIRMEMKRDPGNGEPKMDMHIPIEIIPIPPPGDPAFQESAGGSAGGSA [r18_6_TrROS] | 2.12 ± 0.054 | 3.17 ± 0.039 | 2.79 ± 0.14
7 | SAGGSAGGSAMKFPKGAKIEIVVTEDKVYVRIKTPGGKEIEVEMTLEELKKLGFEVEIVEEESAGGSAGGSA [r18_125_TrROS_Hall] | 1.75 ± 0.086 | 2.27 ± 0.061 | 2.19 ± 0.15
8 | SAGGSAGGSAGGTITLPGGAEVTEVERLPGGVLKITGVLTLPGGPVTVEVTLPVTPELLESAGGSAGGSAGG [r7_38_JUSTAS] | 0.772 ± 0.034 | 1.03 ± 0.049 | 1.03 ± 0.099
9 | SAGGMKVDPKTNITTIEFPSSNLPELKEAIEKTGEKPVVVILKDPNSDREVRITLTKEEALKYLEKKSAGGS [r16_797_JUSTAS] | 0.209 ± 0.14 | 0.71 ± 0.1 | 0.565 ± 0.18
10 | SAGGSAFKLTFKNMKIESKMPNPDGQKMIRIEWPDGLSIMIHPPNAIWIMPKDDPEMPPGDMVPIDSAGGSA [r15_692_TrROS] | 0.695 ± 0.25 | 0.782 ± 0.28 | 0.953 ± 0.28
11 | SEITIKLKVENLSEEELKKLAEELAKEGLFEITSIKVENGYVTITIKKKPKPPPKPEKKKVVFDKDGKPVSA [r9_830_TrROS_Hall] | 0.975 ± 0.071 | 2.58 ± 0.12 | 2.2 ± 0.14
12 | SAGGSAGGSAGGSPNPLLPPVRPKVILKDPKTGTTKTFTTEEEAKKAVESGEYTVLKIESAGGSAGGSAGGS [r10_520_JUSTAS] | -0.0844 ± 0.066 | 0.353 ± 0.11 | 0.217 ± 0.058
13 | SAGGKEVKPIKGKVKITVNGKEIEVEVKKAKIVKNKDGSYYIFIEKDGKKLLIKLKNGKLVKIEEVPSAGGS [r16_721_TrROS_Hall] | 2.37 ± 0.097 | 3.89 ± 0.042 | 3.42 ± 0.089
14 | SAGGSAMIVIPVDPNDPAAEKTVAEAIAAGKDVIIRSPSGKYTFYKPDGSKKELSSEEEIKKAGLESAGGSA [r15_94_JUSTAS] | 0.249 ± 0.086 | -0.495 ± 0.77 | 0.0288 ± 0.19
15 | SAGGKKVEITIEASPEEAEELAKKLEELFPDVKVEVVEVKPEEPVRVTVRVEVKVELSPEELKKLLESAGGS [r16_180_TrROS_Hall] | 1.45 ± 0.085 | 1.37 ± 0.11 | 1.4 ± 0.14
16 | SAGGSAGGSETVTLTLVVDSPEEAKALIDALKKAGIKEVTLEEKDGKLVLTITMSKEELEKLKSAGGSAGGS [r12_846_TrROS_Hall] | 2.31 ± 0.23 | 3.8 ± 0.13 | 3.41 ± 0.2
17 | SAGMNLDNMKIKEIKLQVNPDGSVEVPFEFRFPNGKPMKVSMRVNNGMIEIYYPNGWPITIDIPPGAFSAGG [r19_84_TrROS] | 1.01 ± 0.15 | 1.48 ± 0.16 | 1.36 ± 0.15
18 | SAGGKLIIVIEVNGETIEVDLEEAETLEEAIQKVLDEIRERFPEIGTVRIKVFDEKGKLIKEIEIKLKSAGG [r13_257_TrROS_Hall] | 3.25 ± 0.12 | 3.6 ± 0.18 | 3.51 ± 0.17
19 | SAELLEELLKKAREEAEKEGKKVEIHLVLVVEKDENGKVTFTEEEKELIKKLKEAFPDVEIKIEVVELPSAG [r14_636_TrROS_Hall] | 2.83 ± 0.18 | 3.45 ± 0.16 | 3.28 ± 0.13
20 | SAGGSAMDLKIKKKERDPPNGTKKLTVEVPGWEVEINIERNPDGPYKIEIYAPNPAAKNAIKEFIKSAGGSA [r15_42_TrROS] | -0.275 ± 0.26 | 0.488 ± 0.18 | 0.324 ± 0.2
21 | SAGGRAEEFATFLAELLRALLPPGEKVRATAVVTPEGVVVRVEHPLGFVAEALVKGDKLVRLELRPVSAGGS [r8_287_TrMRF] | 3.17 ± 0.13 | 3.82 ± 0.09 | 3.6 ± 0.11

Row | Sequence | folding stability dG unfold [1] [kcal/mol] | folding stability dG unfold [2] [kcal/mol] | folding stability dG unfold [3] [kcal/mol]
22 | SAGGSAEEEVVETEVVYDPETKELHVRTKVFKPKPEITIEVDMSLEEVKALLEELTGRKIDRVEIKSAGGSA [r15_101_TrROS_Hall] | 0.433 ± 0.035 | 1.68 ± 0.05 | 1.34 ± 0.084
23 | SAGGSAGMELVPLPSPQLVPLTVETTPLPETGTTLVTETSPLGERTVTRVDPAGNVTTLSSTSTSTSAGGSA [r15_790_JUSTAS] | -0.389 ± 0.033 | -0.192 ± 0.12 | -0.226 ± 0.12
24 | STKLLPFEEALKEAEKAIKEGKKKVNITIYTPDGKTFNLTDVEKVKEFIEKEFPGISLSELTVTVSITPPES [r1_325_JUSTAS] | 2.86 ± 0.068 | 3.53 ± 0.065 | 3.3 ± 0.067
25 | SAGGSAGGGITAKEAAELLEKYLKEKGYDYEVKIEEVDPVNPTVKITVTFPDGSKLEITLPIVDSAGGSAGG [r6_617_TrMRF] | 3.02 ± 0.16 | 3.21 ± 0.34 | 3.09 ± 0.2
26 | SMKPGEVKELTLKLTIPVKPGEITVTLVLKLEDGRYVVVESRATVKEDGTIEIEVKIRVYDPKTNEWKELSA [r9_349_TrROS_Hall] | 2.37 ± 0.19 | 3.28 ± 0.18 | 2.89 ± 0.35
27 | SAGGSAGGSKKVEVEILLLLPESTTEEEAKALAEELAEKIKEATPADDVEVKVVILKVPKNALSAGGSAGGS [r12_522_TrMRF] | 2 ± 0.12 | 1.89 ± 0.048 | 1.92 ± 0.21
28 | SAGGSAGGSAGGGPEDRVVPLFFEFDLPEDVVLEVPSDADVFVFRLPDRTLMVLLVDERESAGGSAGGSAGG [r7_584_TrMRF] | 1.82 ± 0.051 | 2.88 ± 0.023 | 2.51 ± 0.057
29 | SAGGSAGGSAPVFLRVEVENPNGERFELTAKLGDPIEIDPSVVDNVKVEVFDPDGNKAEFELNSAGGSAGGS [r12_380_TrMRF] | 0.284 ± 0.042 | 0.611 ± 0.057 | 0.506 ± 0.069
30 | SAGGSAGGSAGGSKKYKAKIVSVEYDEETKEVTIKVKLENGEEKTITMSLEELKEIELPSAGGSAGGSAGGS [r4_51_TrROS_Hall] | 1.97 ± 0.081 | 3.15 ± 0.033 | 2.77 ± 0.079
31 | SAGGKKKKVKKIKVKVKIKLKNGEEVTITEAYVLPDGTVIIKVEVTKPDGSKETKTFTIPLKDIEIESAGGS [r16_498_TrROS_Hall] | 2.24 ± 0.075 | 3.7 ± 0.07 | 3.34 ± 0.11
32 | SAGGSAMEIDIDPEKNEIRIYNPWNGQPHPFTIESIEPIDPDNKYFKFKIKYPDTGKEMPFMVQIDSAGGSA [r15_209_TrROS] | 0.57 ± 0.042 | 1.4 ± 0.15 | 1.08 ± 0.12
33 | KKKYLVLLEARPRLYEFDENGKLIREIPLLVPFIGEGNDPEKVKEAAEKLFGEEVKILEVFPLEEVEEGKIS [r1_493_TrMRF] | 1.85 ± 0.065 | 2.692 ± 0.017 | 2.4 ± 0.072
34 | SAGGSMPLTLEIKAPASTPASEIVATLKKYGPVTVTLGDGRTYNIPRDKPPNLKGLPLAPDAVLTLVVSAGG [r13_399_JUSTAS] | -0.08 ± 0.1 | -0.742 ± 0.4 | -0.263 ± 0.091
35 | SAGKKKKITIEIVIKPKTLEELENKIKEIAKKLGLKKIEKIEIVKIEKDKNGKIKKVVIKITLTEEALKSAG [r5_575_TrROS_Hall] | 1.51 ± 0.12 | 3.25 ± 0.24 | 2.61 ± 0.31
36 | SAGGSAGGSAGGMIVETLGDSPETVTLVKLPNKPIIRTYDPVTGTWTIYDPDTNKIYEISAGGSAGGSAGGS [r10_434_JUSTAS] | 1.39 ± 0.052 | 0.872 ± 0.14 | 1.26 ± 0.098
37 | SAGGSALENLEENEYIVKIEIEKKNKKKIEIVIAGKPEKIKEIEKELKKKGFKILKIEPKKVKDVLSAGGSA [r15_640_TrMRF] | 1.45 ± 0.054 | 1.59 ± 0.066 | 1.56 ± 0.1
38 | SAGGSAGGSAGKKTVVIKDAEIVEVEEENGYLKVRIKVTNPDGSEEEFTFTFKPGDVIELSAGGSAGGSAGG [r11_211_TrROS_Hall] | 2.01 ± 0.07 | 3.11 ± 0.059 | 2.71 ± 0.17
39 | SAGGSAGGSAGGGSSVITTTETDPANGLLTTTTTTINGSETVPSSTVSPVPPPPPPSTLSAGGSAGGSAGGS [r10_354_JUSTAS] | 1.67 ± 0.14 | 0.0312 ± 0.094 | 1.11 ± 0.12
40 | SAGGSAGGSAGMKKNEKLITELTFEGPDVYVKITIEKTFDPEGNKIYFKAKIEVFAPGELSAGGSAGGSAGG [r11_237_TrMRF] | 2.83 ± 0.097 | 4.06 ± 0.075 | 3.67 ± 0.1
41 | SMKIKIYVAPPGYVVVRITGPNGFYIPIPAKDPDEAKAKLEELINNLQERNGHKPDIDVVPFPPGQEIGDSA [r9_786_TrROS] | 1.39 ± 0.044 | 2.22 ± 0.1 | 1.93 ± 0.15
42 | SAGGSAGGSPGFIIRVRTWERDPKDGKWKPKRERPLTFPPDDADDFADKLNSESPNVEVEIMPSAGGSAGGS [r12_342_TrROS] | -0.0285 ± 0.15 | -0.259 ± 0.25 | -0.0797 ± 0.15
